The supplement of paper PMC10567573

B1: RIPK4 (parent)
chain: AAWQGHLPIVKLLAKQPGVSVNAQ

Variants of: B1
Assay: protein stability index of a GFP-peptide fusion (GPS, HEK-293T) (PSI 1-6); higher = more stable
Details: c terminus: a fixed tail appended
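Note: lentivirally expressed fusions sorted by FACS into six bins by GFP to DsRed ratio, PSI derived from sequencing read proportions per bin multiplied by bin number.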

Protein stability index: each site, then its substitutions
A23: C 2.89 | Q 3.54 | S 2.52 | T 2.4 | H 1.79 | D 2.65 | P 2.03 | R 2.64 | N 2.92 | Y 1.63 | I 1.72 | L 2.01 | G 2.54 | F 1.41 | E 2.92
H6: L 1.45 | I 2.65 | M 1.86 | E 2.81 | Q 2.76 | Y 1.1 | F 1.41 | P 2.67 | D 2.98 | S 1.84 | A 2.54 | N 2.2
P17: D 2.15 | Y 3.38 | S 2.46 | F 1.53 | W 2.91 | G 2.22 | A 1.51 | C 1.92 | N 2.54 | K 2.45 | Q 2.37 | H 1.82 | M 2.5
A1: D 3.41 | G 1.34 | H 2.77 | L 1.05 | I 1.95 | P 2.81 | S 2.56 | M 1.98 | N 2.35 | E 2.24 | T 2.22 | F 3.12
Q16: V 2.14 | M 2.22 | N 2.95 | K 2.77 | G 2.93 | L 2 | D 3.25 | I 1.42 | T 2.5 | A 2.54 | W 1.55 | E 3.78 | C 2 | S 2.56
G5: M 2.37 | D 2.94 | K 1.97 | P 2.56 | A 2.02 | T 2.69 | R 2.36 | W 1.71 | L 1.52 | Y 2.89 | E 2.83 | Q 2.44 | C 2.69 | H 1.86 | N 3.7 | V 2.58
V19: H 2.65 | M 2.3 | K 2.73 | F 1.7 | R 3.3 | C 2.66 | Y 1.75 | T 2.46 | S 3.22 | L 2.04 | W 1.61 | D 3.35
Q4: D 2.62 | R 1.89 | A 1.93 | T 2.65 | Y 1.51 | M 1.94 | E 2.45 | H 3.18 | P 3.34 | C 3.15 | I 1.34 | F 1.24 | N 2.06 | G 2.56 | L 1.32
L12: N 3.59 | H 3.33 | D 4.08 | Q 3.02 | V 2.35 | A 3.04 | Y 3.14 | P 2.71 | M 1.88 | C 2.75 | T 3.25 | S 3.75 | F 2.45 | G 3.67
L13: C 2.86 | S 2.85 | T 2.16 | D 3.82 | V 2.88 | H 2.5 | Q 4.64 | A 2.9 | F 2.39 | I 2.82 | E 4.25 | N 3.81 | R 3.09 | P 3.55 | W 3.24
V10: N 2.1 | D 2.74 | L 1.61 | G 2.36 | K 2.23 | C 2.38 | E 3.71 | F 2.16 | S 2.72 | P 2.75 | Q 2.56 | W 3.69 | M 2.64 | R 2.37 | H 2.34 | I 1.92 | Y 3.72 | A 2.33
W3: K 3.21 | S 3.65 | L 2.42 | N 3.29 | Y 2.42 | F 2.97 | H 3.06 | C 3.78 | V 2.49 | M 3.88 | T 3.56 | A 3.2 | E 3.63 | P 3.82 | G 2.91 | I 3.07 | Q 3.5
G18: V 1.92 | P 2.28 | T 2.54 | M 1.61 | R 1.69 | F 1.51 | D 3.03 | H 2.55 | L 2.07 | A 2.67 | I 2.01 | W 1.36 | Y 2.08 | C 1.72
A2: F 2.15 | I 1.66 | C 2.19 | Y 2.12 | H 2.8 | M 2.73 | G 2.27 | N 3.16 | Q 2.62 | K 2.37 | L 2.38 | E 2.69 | R 2.72 | T 3.11
P8: F 3.42 | C 3.63 | S 1.78 | G 1.8 | Q 1.85 | D 2.25 | A 1.63 | H 2.08 | K 1.07
S20: A 2.3 | M 2.29 | T 2.4 | I 2.33 | G 2.63 | P 2.05 | V 1.82 | W 2.83 | E 2.79 | K 1.96 | Y 1.66 | D 2.55 | F 1.64 | C 2.88 | L 1.76
K15: E 2.73 | N 3.56 | C 1.67 | R 2.06 | P 1.28 | L 1.82 | F 2.26 | D 3.15 | A 2.56 | S 2.16 | G 2.58 | M 2.11 | W 2.04 | I 2.82 | T 2.88
V21: C 1.54 | Y 1.89 | R 2.75 | G 1.6 | N 2.99 | E 2.92 | T 2.18 | I 2.43 | P 2.3 | K 2.8 | F 2.23 | S 2.81 | D 3.05 | L 2.51 | Q 2.3
I9: E 2.55 | T 3.02 | C 3.1 | F 2.36 | Q 2.78 | A 3.49 | H 2.47 | S 2.83 | N 1.79 | G 2.14
L7: S 2.8 | V 2.65 | W 1.81 | D 3.03 | Q 3.55 | F 2.71 | T 2.29 | M 2.33 | G 3.01 | R 5.04 | C 2.21 | I 2.76 | A 2.1 | N 3.36
A14: V 1.87 | I 1.67 | K 3.17 | C 1.33 | N 3.07 | S 2.72 | H 2.13 | G 2.72 | P 3.28 | E 2.56 | W 1.33 | T 2.42
Q24: A 2.08 | I 1.61 | V 3.06 | E 3.17 | W 1.58 | M 1.86 | L 2.83 | N 2.39 | S 2.69 | D 3.29 | T 1.93 | P 1.89 | R 3.16 | F 2.07 | Y 1.5 | G 1.93 | H 1.93
N22: W 1.36 | Y 1.39 | M 2.61 | K 2.29 | T 2.58 | S 3.35 | G 1.98 | D 2.48 | Q 1.98 | A 2.15 | V 3.92 | P 2.19 | H 2.37 | R 1.98 | L 2.06
K11: E 3.62 | H 2.15 | P 3.07 | A 1.76 | G 3 | N 2.4 | T 2.1 | Y 1.94 | M 2.13 | Q 2.35 | S 1.58
